Data taken from patent publication US20250277023A1 (published 2025).
Blank lines part the entries; values can stand above or below the binder they belong to.

How the values were obtained:
[1] = molecular target: T1, PD-L1 (on CHO-PD-L1 cells) (UniProt Q9NZQ7 19-290); test: FACS binding; Fig. 23
IL15R = test: FACS binding; Fig. 29
[2] = molecular target: T1, PD-L1 (on CHO-PD-L1 cells); test: FACS binding; Fig. 22
[3] = molecular target: T2, TIGIT (on CHO-TIGIT cells) (UniProt Q495A1 22-244); test: FACS binding; Fig. 17
T2 chain: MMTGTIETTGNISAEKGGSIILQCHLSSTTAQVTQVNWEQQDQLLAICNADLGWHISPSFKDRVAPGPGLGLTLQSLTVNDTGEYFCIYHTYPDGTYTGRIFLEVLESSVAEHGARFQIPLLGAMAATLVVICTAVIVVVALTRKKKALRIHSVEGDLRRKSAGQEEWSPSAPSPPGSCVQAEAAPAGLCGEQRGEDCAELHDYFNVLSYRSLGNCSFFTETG

T1 sequence (Q9NZQ7 19-290): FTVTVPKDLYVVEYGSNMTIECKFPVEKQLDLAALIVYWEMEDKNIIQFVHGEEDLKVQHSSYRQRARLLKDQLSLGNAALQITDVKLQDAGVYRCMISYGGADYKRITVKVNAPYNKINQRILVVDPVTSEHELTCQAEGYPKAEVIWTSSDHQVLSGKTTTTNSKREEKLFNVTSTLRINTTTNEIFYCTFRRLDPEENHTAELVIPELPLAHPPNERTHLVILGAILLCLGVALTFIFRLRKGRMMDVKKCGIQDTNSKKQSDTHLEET

EC50 [1]: 7.29 nM
B1: R1042: PD-L1_VH_IL15RA/TIGIT_VL_IL15/TIGIT_VH/PD-L1-VL (bispecific antibody)
chain 1: EVQLLESGGGLVQPGGSLRLSCAASGFTFSSYIMMWVRQAPGKGLEWVSSIYPSGGITFYADTVKGRFTISRDNSKNTLYLQMNSLRAEDTAVYYCARIKLGTVTTVDYWGQGTLVTVSSGGGGSGGGGSGGGGSGGGGSGITCPPPMSVEHADIWVKSYSLYSRERYICNSGFKRKAGTSSLTECVLNKATNVAHWTTPSLKCIRDPALVHQRPAPPSTVTTAGVTPQPESLSPSGKEPAASSPSSNNTAATTAAIVPGSQLMPSKSPSTGTTEISSHESSHGTPSQTTAKNWELTASASHQPPGVYPQGHSDTTEPRGPTIKPCPPCKCPAPNLLGGPSVFIFPPKIKDVLMISLSPIVTCVVVDVSEDDPDVQISWFVNNVEVHTAQTQTHREDYNSTLRVVSALPIQHQDWMSGKEFKCKVNNKDLPAPIERTISKPKGSVRAPQVYVLPPPEEEMTKKQVTLWCMVTDFMPEDIYVEWTNNGKTELNYDNTEPVLDSDGSYFMYSDLRVEKKNWVERNSYSCSVVHEGLHNHHTTKSFSRTPGK
chain 2: not shown
heavy: QVQLESEGGLFKPTDTLTLTCTVSGSSLSSSYMSWVRQAPGKGLEWIGIIGSNGNTYYANWAKGRFTISKTSTTVELKITSPTTEDTATYFCARGGYRTSGMDPWGPGTLVTVSSAKTTAPSVYPLAPVCGDTTGSSVTLGCLVKGYFPEPVTLTWNSGSLSSGVHTFPAVLQSDLYTLSSSVTVTSSTWPSQSITCNVAHPASSTKVDKKIEPRGPTIKPCPPCKCPAPNLLGGPSVFIFPPKIKDVLMISLSPIVTCVVVDVSEDDPDVQISWFVNNVEVHTAQTQTHREDYNSTLRVVSALPIQHQDWMSGKEFKCKVNNKDLPAPIERTISKPKGSVRAPQVYVLPPPEEEMTKKQVTLTCRVTDFMPEDIYVEWTNNGKTELNYKNTEPVLKSDGSYFMASKLRVEKKNWVERNSYSCSVVHEGLHNHHTTKSFSRTPGK
light: QSALTQPASVSGSPGQSITISCTGTSSDVGGYNYVSWYQQHPGKAPKLMIYDVSNRPSGVSNRFSGSKSGNTASLTISGLQAEDEADYYCSSYTSSSTRVFGTGTKVTVLRTDAAPTVSIFPPSSEQLTSGGASVVCFLNNFYPKDINVKWKIDGSERQNGVLNSWTDQDSKDSTYSMSSTLTLTKDEYERHNSYTCEATHKTSTSPIVKSFNRNEC

EC50 (IL15R): 0.862 nM
B2: R1042 (bispecific antibody)
chain 1: EVQLLESGGGLVQPGGSLRLSCAASGFTFSSYIMMWVRQAPGKGLEWVSSIYPSGGITFYADTVKGRFTISRDNSKNTLYLQMNSLRAEDTAVYYCARIKLGTVTTVDYWGQGTLVTVSSGGGGSGGGGSGGGGSGGGGSGITCPPPMSVEHADIWVKSYSLYSRERYICNSGFKRKAGTSSLTECVLNKATNVAHWTTPSLKCIRDPALVHQRPAPPSTVTTAGVTPQPESLSPSGKEPAASSPSSNNTAATTAAIVPGSQLMPSKSPSTGTTEISSHESSHGTPSQTTAKNWELTASASHQPPGVYPQGHSDTTEPRGPTIKPCPPCKCPAPNLLGGPSVFIFPPKIKDVLMISLSPIVTCVVVDVSEDDPDVQISWFVNNVEVHTAQTQTHREDYNSTLRVVSALPIQHQDWMSGKEFKCKVNNKDLPAPIERTISKPKGSVRAPQVYVLPPPEEEMTKKQVTLWCMVTDFMPEDIYVEWTNNGKTELNYDNTEPVLDSDGSYFMYSDLRVEKKNWVERNSYSCSVVHEGLHNHHTTKSFSRTPGK
chain 2: not shown
heavy: QVQLESEGGLFKPTDTLTLTCTVSGSSLSSSYMSWVRQAPGKGLEWIGIIGSNGNTYYANWAKGRFTISKTSTTVELKITSPTTEDTATYFCARGGYRTSGMDPWGPGTLVTVSSAKTTAPSVYPLAPVCGDTTGSSVTLGCLVKGYFPEPVTLTWNSGSLSSGVHTFPAVLQSDLYTLSSSVTVTSSTWPSQSITCNVAHPASSTKVDKKIEPRGPTIKPCPPCKCPAPNLLGGPSVFIFPPKIKDVLMISLSPIVTCVVVDVSEDDPDVQISWFVNNVEVHTAQTQTHREDYNSTLRVVSALPIQHQDWMSGKEFKCKVNNKDLPAPIERTISKPKGSVRAPQVYVLPPPEEEMTKKQVTLTCRVTDFMPEDIYVEWTNNGKTELNYKNTEPVLKSDGSYFMASKLRVEKKNWVERNSYSCSVVHEGLHNHHTTKSFSRTPGK
light: QSALTQPASVSGSPGQSITISCTGTSSDVGGYNYVSWYQQHPGKAPKLMIYDVSNRPSGVSNRFSGSKSGNTASLTISGLQAEDEADYYCSSYTSSSTRVFGTGTKVTVLRTDAAPTVSIFPPSSEQLTSGGASVVCFLNNFYPKDINVKWKIDGSERQNGVLNSWTDQDSKDSTYSMSSTLTLTKDEYERHNSYTCEATHKTSTSPIVKSFNRNEC

EC50 (IL15R): 1.07 nM
B3: R1043 (bispecific antibody)
chain 1: QVQLESEGGLFKPTDTLTLTCTVSGSSLSSSYMSWVRQAPGKGLEWIGIIGSNGNTYYANWAKGRFTISKTSTTVELKITSPTTEDTATYFCARGGYRTSGMDPWGPGTLVTVSSGGGGSGGGGSGGGGSGGGGSGITCPPPMSVEHADIWVKSYSLYSRERYICNSGFKRKAGTSSLTECVLNKATNVAHWTTPSLKCIRDPALVHQRPAPPSTVTTAGVTPQPESLSPSGKEPAASSPSSNNTAATTAAIVPGSQLMPSKSPSTGTTEISSHESSHGTPSQTTAKNWELTASASHQPPGVYPQGHSDTTEPRGPTIKPCPPCKCPAPNLLGGPSVFIFPPKIKDVLMISLSPIVTCVVVDVSEDDPDVQISWFVNNVEVHTAQTQTHREDYNSTLRVVSALPIQHQDWMSGKEFKCKVNNKDLPAPIERTISKPKGSVRAPQVYVLPPPEEEMTKKQVTLWCMVTDFMPEDIYVEWTNNGKTELNYDNTEPVLDSDGSYFMYSDLRVEKKNWVERNSYSCSVVHEGLHNHHTTKSFSRTPGK
chain 2: not shown
heavy: EVQLLESGGGLVQPGGSLRLSCAASGFTFSSYIMMWVRQAPGKGLEWVSSIYPSGGITFYADTVKGRFTISRDNSKNTLYLQMNSLRAEDTAVYYCARIKLGTVTTVDYWGQGTLVTVSSAKTTAPSVYPLAPVCGDTTGSSVTLGCLVKGYFPEPVTLTWNSGSLSSGVHTFPAVLQSDLYTLSSSVTVTSSTWPSQSITCNVAHPASSTKVDKKIEPRGPTIKPCPPCKCPAPNLLGGPSVFIFPPKIKDVLMISLSPIVTCVVVDVSEDDPDVQISWFVNNVEVHTAQTQTHREDYNSTLRVVSALPIQHQDWMSGKEFKCKVNNKDLPAPIERTISKPKGSVRAPQVYVLPPPEEEMTKKQVTLTCRVTDFMPEDIYVEWTNNGKTELNYKNTEPVLKSDGSYFMASKLRVEKKNWVERNSYSCSVVHEGLHNHHTTKSFSRTPGK
light: DIVMTQTPASVEVAVGGTVTIKCQASQSISSYLNWYQQKPGQPPKLLIYDALKLASGVPSRFSGSGSGTEYTLTISGVESADAATYYCQQEHSVGNVDNVFGGGTEVVVKRTDAAPTVSIFPPSSEQLTSGGASVVCFLNNFYPKDINVKWKIDGSERQNGVLNSWTDQDSKDSTYSMSSTLTLTKDEYERHNSYTCEATHKTSTSPIVKSFNRNEC

EC50 [2]: 5.22 nM
EC50 [3]: 2.89 nM
B4: R1123: TIGIT_VH_IL21R/TIGIT_VL_IL21/PD-L1-Fab (bispecific antibody)
chain 1: not shown
chain 2: not shown
heavy: EVQLQESGPGLVKPSETLSLTCAVYGDSITSGYWNWIRKPPGKGLEYMGYISYTGSTYQNPSLKSRITFSRDTSKNQYYLKLSSVTAADTATYYCARSRAWIRTYFDYWGQGTLVTVSSASTKGPSVFPLAPSSKSTSGGTAALGCLVKDYFPEPVTVSWNSGALTSGVHTFPAVLQSSGLYSLSSVVTVPSSSLGTQTYICNVNHKPSNTKVDKRVEPKSCDKTHTCPPCPAPELLGGPSVFLFPPKPKDTLMISRTPEVTCVVVDVSHEDPEVKFNWYVDGVEVHNAKTKPREEQYNSTYRVVSVLTVLHQDWLNGKEYKCKVSNKALPAPIEKTISKAKGQPREPQVYTLPPSREEMTKNQVSLWCLVKGFYPSDIAVEWESNGQPENNYDTTPPVLDSDGSFFLYSDLTVDKSRWQQGNVFSCSVMHEALHNHYTQKSLSLSPGK
light: EIVLTQSPDFQSVTPKEKVTITCSVSSSISSSNLHWYQQKPDQSPKLLIYGTSNLASGVPSRFSGSGSGTDFTLTINSLEAEDAATYYCQQWSSYPLTFGQGTKLEIKRTVAAPSVFIFPPSDEQLKSGTASVVCLLNNFYPREAKVQWKVDNALQSGNSQESVTEQDSKDSTYSLSSTLTLSKADYEKHKVYACEVTHQGLSSPVTKSFNRGEC
